Residues, ends and D or L forms follow the SMILES beside them. *: point of attachment. Cbz = O=C(OCc1ccccc1)*
Columns and labels:
[1] = system: transgenic plants expressing full-length HopM1; experiment: DEX spraying of transgenic plants expressing full-length HopM1: leaf necrosis; format: in vivo, Arabidopsis
Experimental: (§1) Following inoculation, infected plants were monitored daily over a 3- to 4-day period for symptom development and bacterial multiplication. For experiments described in FIGS. 1 and 5, plants were sprayed with 30 μM dexamethasone (DEX) 24 h before bacterial inoculation (1×10^6 cfu/ml).

[2] = system: HopM1-mediated destabilization of AtMIN7; experiment: Immunoblot of HopM1-mediated destabilization of AtMIN7 with protease/proteasome inhibitors; format: cell-based; details: N. benthamiana leaves co-expressing AtMIN7::HA and 6×His::HopM11-712
Description: AtMIN-HA and 6×His-HopM1 proteins were detected using the HA and 6×His epitope antibodies, respectively. […] AtMIN7::HA and 6×His::HopM11-712 proteins were detected with HA and 6×His epitope antibodies, respectively.

Pst DC3000 = experiment: Bacterial multiplication and disease symptoms in transgenic Arabidopsis expressing HopM1 truncated derivatives; format: in vivo; details: fragment expressed in transgenic Arabidopsis
Experimental: as §1
(§2) Leaves were harvested and surface sterilized as follows: 1) whole leaves were removed from a host plant and gently mixed in a 70% ethanol solution for 1 minute. Leaves were blotted briefly on paper towels then rinsed in sterile distilled water for 1 minute, then blotted dry on paper towels. Leaf disks were excised from leaves with a 0.5 cm^2 or smaller cork borer, depending on the size of the sample leaves; 2) leaf disks from the leaves of 2 or more independent replicate plants were pooled for a single tissue sample and placed in a 1.5-mL microfuge tube with 100 μL sterile distilled water, the amount of leaf tissue per tube was recorded as leaf surface area. Three or more samples were harvested for each time point. […] The number of serial dilutions necessary to get countable colonies were determined for each sample, however dilutions to 10^−7 were usually sufficient for any bacterial strain; 7) The samples were plated on the appropriate medium (e.g., Low salt Luria Bertani) supplemented with the necessary antibiotics to select for the specific inoculated bacterial strain. […]

[3] = system: Pst DC3000 ΔCEL mutant-pORF43 bacteria; experiment: as above; format: in vivo; details: fragment expressed in transgenic Arabidopsis, compared with Col-0 gl1 or other truncated derivatives
Experimental: as §1, §2

AtMIN7-HA = molecular target: T1, AtMIN7-HA (Arabidopsis thaliana, UniProt F4IXW2, DEL212-213/INS429[…]); experiment: Protein pull-down assay and immunoblot in N. benthamiana leaves; format: binding; details: transient co-expression in N. benthamiana leaves, Ni-NTA pull-down
T1 construct: expressed in transfected cells; host or cells: Nicotiana benthamiana leaves, Agrobacterium tumefaciens C58C1 co-infiltration (pBI121-AtMIN or pBAR1-AtMIN)
Description: N. benthamiana plants were transiently transformed with HopM1 and AtMIN proteins. In brief, fully expanded N. benthamiana leaves were co-infiltrated with Agrobacterium tumefaciens C58 C1 (for an example of co-infiltration techniques, see, Hellens, et al. (2005) Plant Methods, 1:13; herein incorporated by reference) comprising plasmids and genes described herein (for example, see, Bechtold, et al. (1993) Comptes Rendus De L Academie Des Sciences Serie Iii-Sciences De La Vie-Life Sciences 316(10):1194-1199; herein incorporated by reference).
In brief: leaf disc fractions were homogenized in 1×SDS-polyacrylamide gel electrophoresis (PAGE) sample buffer, boiled for 5 min, and centrifuged for 2 minutes. Proteins in the supernatant were separated on SDS-PAGE gels and transferred to Immobilon-P membrane for immunoblotting procedures (Millipore Corp., Bedford, Mass.).
Protein pull-down analysis methods: N. benthamiana leaf discs were homogenized in lysis buffer (50 mM Tris-HCl pH=8.0, 250 mM NaCl, 10 mM β-mercaptoethanol, 1% Triton X100, 1 mM PMSF, plant protease inhibitor cocktail [Sigma Co.]). Total protein extracts were collected after centrifugation of the homogenate at 20,000-x g for 15 min at 4° C. to remove insoluble materials. […] AtMIN10-HA was detected using the HA epitope antibody.

Pst DC3000 ΔCEL mutant = experiment: Complementation of virulence defect in transgenic Arabidopsis expressing HopM1 or truncated derivatives; format: in vivo; details: protein expressed in transgenic Arabidopsis after DEX
Experimental: as §1, §2

AtMIN7 = experiment: Detection of polyubiquitinated AtMIN7 in planta (western blot, ubiquitin antibody); format: cell-based, Nicotiana benthamiana; details: MG132-treated N. benthamiana leaves
Description: Left: AtMIN7::HA and 6×His::HopM1-300, 6×His::HopM301-712 or 6×His::HopM1-712 were transiently co-expressed in MG132-treated N. benthamiana leaves. Ubiquitinated proteins were detected by western blot (WB) with a polyclonal ubiquitin (Ub) antibody (Sigma Co.). Right: AtMIN7::HA and 6×His::HopM1-712 were transiently co-expressed in 1% DMSO(−)- or MG132-treated N. benthamiana leaves. AtMIN7 was immunoprecipitated (IP) using a polyclonal AtMIN7 antibody. Ubiquitinated AtMIN7 protein was detected by western blot (WB) with a polyclonal ubiquitin (Ub) antibody (Sigma Co.). See Materials and Methods for transient expression and immunoprecipitation of AtMIN7 and HopM1 in N. benthamiana leaves.

T1 sequence (F4IXW2 with tags, fused parts or gaps DEL212-213/INS429[withheld]): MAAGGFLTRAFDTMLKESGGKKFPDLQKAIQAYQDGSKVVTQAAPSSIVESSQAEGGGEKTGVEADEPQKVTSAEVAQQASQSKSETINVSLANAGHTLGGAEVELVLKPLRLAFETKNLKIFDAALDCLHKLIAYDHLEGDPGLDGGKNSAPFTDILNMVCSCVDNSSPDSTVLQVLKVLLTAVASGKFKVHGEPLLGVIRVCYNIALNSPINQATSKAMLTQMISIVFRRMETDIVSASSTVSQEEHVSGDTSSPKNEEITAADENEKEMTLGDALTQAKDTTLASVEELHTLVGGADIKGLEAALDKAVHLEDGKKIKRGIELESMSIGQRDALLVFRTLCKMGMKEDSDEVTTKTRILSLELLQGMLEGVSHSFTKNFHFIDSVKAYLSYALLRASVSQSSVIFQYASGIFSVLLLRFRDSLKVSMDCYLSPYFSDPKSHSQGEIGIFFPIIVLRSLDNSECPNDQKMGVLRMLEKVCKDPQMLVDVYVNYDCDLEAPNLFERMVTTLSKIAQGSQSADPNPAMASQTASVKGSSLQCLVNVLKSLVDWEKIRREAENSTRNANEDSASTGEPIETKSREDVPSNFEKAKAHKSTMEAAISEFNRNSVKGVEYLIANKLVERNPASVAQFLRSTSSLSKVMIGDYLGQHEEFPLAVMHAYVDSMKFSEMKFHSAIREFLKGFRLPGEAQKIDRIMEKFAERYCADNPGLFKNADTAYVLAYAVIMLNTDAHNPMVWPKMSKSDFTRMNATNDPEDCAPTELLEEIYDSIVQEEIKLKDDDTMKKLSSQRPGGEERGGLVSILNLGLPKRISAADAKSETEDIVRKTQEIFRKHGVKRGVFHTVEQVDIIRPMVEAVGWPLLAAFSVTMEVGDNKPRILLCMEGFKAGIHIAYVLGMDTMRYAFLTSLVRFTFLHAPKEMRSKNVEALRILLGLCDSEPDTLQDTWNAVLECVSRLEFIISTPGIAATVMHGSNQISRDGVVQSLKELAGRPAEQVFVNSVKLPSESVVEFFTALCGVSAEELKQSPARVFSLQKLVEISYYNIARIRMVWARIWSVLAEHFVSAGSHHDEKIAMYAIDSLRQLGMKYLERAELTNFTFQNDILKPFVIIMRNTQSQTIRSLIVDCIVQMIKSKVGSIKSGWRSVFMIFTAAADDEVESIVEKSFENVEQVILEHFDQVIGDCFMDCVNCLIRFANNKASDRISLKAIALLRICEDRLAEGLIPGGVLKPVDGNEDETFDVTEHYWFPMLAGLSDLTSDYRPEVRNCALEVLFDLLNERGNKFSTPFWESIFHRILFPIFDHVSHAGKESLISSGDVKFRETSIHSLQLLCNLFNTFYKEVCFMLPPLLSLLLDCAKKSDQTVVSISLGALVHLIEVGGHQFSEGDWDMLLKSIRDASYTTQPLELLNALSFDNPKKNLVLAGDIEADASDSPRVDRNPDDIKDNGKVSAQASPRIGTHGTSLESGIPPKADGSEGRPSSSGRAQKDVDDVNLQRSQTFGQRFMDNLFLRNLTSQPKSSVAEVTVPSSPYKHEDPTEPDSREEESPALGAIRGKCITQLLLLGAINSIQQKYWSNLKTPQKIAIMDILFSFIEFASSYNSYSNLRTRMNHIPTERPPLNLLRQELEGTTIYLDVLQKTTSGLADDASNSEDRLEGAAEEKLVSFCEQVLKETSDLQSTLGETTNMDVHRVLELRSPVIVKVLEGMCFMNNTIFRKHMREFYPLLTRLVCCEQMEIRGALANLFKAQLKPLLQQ

Molecule: C[C@@H]1C[C@H]2[C@@H]3CCC4=CC(=O)C=C[C@]4(C)[C@@]3(F)[C@@H](O)C[C@]2(C)[C@@]1(O)C(=O)CO [DEX, dexamethasone]
- leaf necrosis ([1]; 0.003 μM DEX spray): did not induce leaf necrosis
- time to rapid leaf necrosis ([1]; 30 μM DEX spray): ≤ 10 h

Molecule: CC(C)C[C@@H](C=O)NC(=O)[C@H](CC(C)C)NC(=O)[C@H](CC(C)C)NC(=O)OCc1ccccc1 [MG132] (Cbz-Leu-Leu-Leu-aldehyde)
- effect on HopM1-mediated destabilization of AtMIN7 [2]: blocked

Molecule: CC[C@H](C)[C@H](NC(=O)[C@H]([C@@H](C)CC)N(C)C(C)=O)C(=O)N[C@H](C(=O)N[C@@H](CC(C)C)C(=O)[C@@]1(C)CO1)[C@@H](C)O [epoxomicin]
- effect on HopM1-mediated destabilization of AtMIN7 [2]: blocked

B1: HopM11-300: N-terminal protective fragment of HopM1, amino acids 1-300 (SEQ ID NO:82) (protein, listed as Pseudomonas syringae)
chain: MISSRIGGAGGVELSRVNQQHDTVPAQTAHPNAVTAGMNPPLTPDQSGSHATESSSAGAARLNVAARHTQLLQAFKAEHGTAPVSGAPMISSRAALLIGSLLQAEPLPFEVMAEKLSPERYQLKQFQGSDLQQRLEKFAQPGQIPDKAEVGQLIKGFAQSVADQLEHFQLMHDASPATVGQHAKADKATLAVSQTALGEYAGRASKAIGEGLSNSIASLDEHISALDLTLQDAEQGNKESLHADRQALVDAKTTLVGLHADFVKSPEAKRLASVAAHTQLDNVVSDLVTARNTVGGWKGA
- susceptibility to Pst DC3000 (Pst DC3000): still susceptible
- disease symptoms (necrosis and chlorosis) and bacterial multiplication within plants [3]: significantly reduced
- physical interaction with AtMIN7-HA (AtMIN7-HA): physical interaction

B2: 6×His-HopM1301-712: 6×His-tagged C-terminal HopM1 fragment, amino acids 301-712 (protein)
chain: GPIVAAAVPQFLSSMTHLGYVRLSTSDKLRDTIPETSSDANMLKASIIGMVAGIAHETVNSVVKPMFQAALQKTGLNERLNMVPMKAVDTNTVIPDPFELKSEHGELVKKTPEEVAQDKAFVKSERALLNQKKVQGSSTHPVGELMAYSAFGGSQAVRQMLNDVHQINGQTLSARALASGFGGAVSASSQTLLQLKSNYVDPQGRKIPVFTPDRAESDLKKDLLKGMDLREPSVRTTFYSKALSGIQSSALTSALPPVTAQAEGASGTLSAGAILRNMALAATGSVSYLSTLYTNQSVTAEAKALKAAGMGGATPMLDRTETALNNIRHPNRESLPHTFQKSTLSGIPRVAENAYHMGRGALQLPTQMAVDTVRVVDEGVLNAVASAREALKQPTKDDDALRALEEGLLDPR
modifications: left off: small tags and cut ends
- physical interaction with AtMIN7-HA (AtMIN7-HA): no interaction

B3: HopM1101-712: HopM1 truncated derivative lacking the first 100 aa (SEQ ID NO:98) (protein, listed as Pseudomonas syringae)
chain: LLQAFKAEHGTAPVSGAPMISSRAALLIGSLLQAEPLPFEVMAEKLSPERYQLKQFQGSDLQQRLEKFAQPGQIPDKAEVGQLIKGFAQSVADQLEHFQLMHDASPATVGQHAKADKATLAVSQTALGEYAGRASKAIGEGLSNSIASLDEHISALDLTLQDAEQGNKESLHADRQALVDAKTTLVGLHADFVKSPEAKRLASVAAHTQLDNVVSDLVTARNTVGGWKGAGPIVAAAVPQFLSSMTHLGYVRLSTSDKLRDTIPETSSDANMLKASIIGMVAGIAHETVNSVVKPMFQAALQKTGLNERLNMVPMKAVDTNTVIPDPFELKSEHGELVKKTPEEVAQDKAFVKSERALLNQKKVQGSSTHPVGELMAYSAFGGSQAVRQMLNDVHQINGQTLSARALASGFGGAVSASSQTLLQLKSNYVDPQGRKIPVFTPDRAESDLKKDLLKGMDLREPSVRTTFYSKALSGIQSSALTSALPPVTAQAEGASGTLSAGAILRNMALAATGSVSYLSTLYTNQSVTAEAKALKAAGMGGATPMLDRTETALNNIRHPNRESLPHTFQKSTLSGIPRVAENAYHMGRGALQLPTQMAVDTVRVVDEGVLNAVASAREALKQPTKDDDALRALEEGLLDPR
- complementation of the virulence defect (multiplication, chlorosis) of the Pst DC3000 ΔCEL mutant (Pst DC3000 ΔCEL mutant): partially restored

B4: full-length HopM1: Pst DC3000 HopM1, a 712-aa type III effector virulence protein (SEQ ID NO:34) (protein)
chain: MISSRIGGAGGVELSRVNQQHDTVPAQTAHPNAVTAGMNPPLTPDQSGSHATESSSAGAARLNVAARHTQLLQAFKAEHGTAPVSGAPMISSRAALLIGSLLQAEPLPFEVMAEKLSPERYQLKQFQGSDLQQRLEKFAQPGQIPDKAEVGQLIKGFAQSVADQLEHFQLMHDASPATVGQHAKADKATLAVSQTALGEYAGRASKAIGEGLSNSIASLDEHISALDLTLQDAEQGNKESLHADRQALVDAKTTLVGLHADFVKSPEAKRLASVAAHTQLDNVVSDLVTARNTVGGWKGAGPIVAAAVPQFLSSMTHLGYVRLSTSDKLRDTIPETSSDANMLKASIIGMVAGIAHETVNSVVKPMFQAALQKTGLNERLNMVPMKAVDTNTVIPDPFELKSEHGELVKKTPEEVAQDKAFVKSERALLNQKKVQGSSTHPVGELMAYSAFGGSQAVRQMLNDVHQINGQTLSARALASGFGGAVSASSQTLLQLKSNYVDPQGRKIPVFTPDRAESDLKKDLLKGMDLREPSVRTTFYSKALSGIQSSALTSALPPVTAQAEGASGTLSAGAILRNMALAATGSVSYLSTLYTNQSVTAEAKALKAAGMGGATPMLDRTETALNNIRHPNRESLPHTFQKSTLSGIPRVAENAYHMGRGALQLPTQMAVDTVRVVDEGVLNAVASAREALKQPTKDDDALRALEEGLLDPR
modifications: Pseudomonas syringae pv. tomato str. DC3000
- polyubiquitination of AtMIN7 in vivo (AtMIN7): enhanced
- complementation of the virulence defect (multiplication, chlorosis) of the Pst DC3000 ΔCEL mutant (Pst DC3000 ΔCEL mutant): almost fully complemented

Source: patent US7985889B2, “AtMIN7 mediated disease resistance to Pseudomonas syringae in Arabidopsis” (priority 2007, dated 2011)
